Experimental data: the DeepSol protein solubility set

Experiment: soluble on expression in E. coli; label from the status in PepcDB or PDB records

For “MAHHHHHHMTVKVASEVSLLPYGEHQGSFRGVVACSNRDDGYFSGENNYVDTSIYTGFRYQCVEYARRFLLLTTGCVFANCGRASEIYAMDHITHVETGAQYTLHRHHNDGTATQKPAPGDIIIYPYHPELTPWGHVGVISFVDDNRVGIAEQNHYFGPFTSPSESYLDGERCVARYAMLTLDEATKTWRIDEPGAMPSAVGWLSYPDAPTREQIHAPFTPLPCAIKVRSTPFDQDDHPFLTHYHLHKIFDIPSGCVRHAYGMRNGTAETLVGATSAAARVLRFTLHLLFHRGRLGPAFRALPTNPLNATLPEGAGASTEACREVDALFKVLAEEDVVNATETTPDRLRQAVATYFDIPVEWVMAMERDFAKGETHMAAVVSFYPNIATDSAALEAFRAARKRSGTWAAPAVGTVPLTTAKASTPVAEEPLTLSYPATVEELPLKNPHDEAWHLATVNFGNARVMTELSQLNKVKQDLTETIALMTPSMRPFISTQYRMDFAGYLKVVEAVYGPRTGFTIVVSDDQPMDGLLRELVSTVQNLCEHVEYPVRIVNEKDLTFVNGKLHATPSAISPEAGSHMTNIAPSGAYDVNFVYALCEWPRILACREATHAALYRAAVDPASDVVFAKPLWSYLCSGAVNVSDDAERAHYSHSPRSPSVRFFDVCRRLYLLASPTQQPKTWDLEVSEYKDSCRRIHVDAETVPMHSPAHLNADSLMINLAGSCYMGHAGGTLSVESENTGIHVGHPAFLMFMFPAD”, which “soluble on expression in E. coli” value is on record?
The value was “not soluble”.

Which “soluble on expression in E. coli” value does the source give for “MAHHHHHHMVCRSKRASSFRHRVVHACVTEQRVLPSCRIHVVLRNFSADFSSLSPRCHYTSAGLLLHPSPLPPPSSTSSRLSTSIPPFRFTRAESSAAVFSMSIGTDYLSAMLNYNGCLQERILRRLLIIENETDSLLALRCALVPLQTPTRKRKRHTEPVAAQGTSFNVDVDTTRHRWSTELCEALNDEAAKANCIASLCPPAKERWCAVAAALRRAGHPSFTPYELFTKYKEMHSDSRPFALSEARFVCQYVQEHGGDWQGLCQALRQRLGHVRSPFQVAQQYRQRLRCAFVENRLTSSQLLTLLADLPASPQDRDFAALSVEAQRFTSHKTLQVSPLYLKRELEPLDFAARVPTCHHLYWKLVNLLCNFTLSHPNRLHAFQHRMPFCYQQRSLADLARSLQCEAAELQERVVHALLRLSRPPEALNYEECSKKLFGTVCGAQLIYQISEKLHEKDI” here?
The value was “soluble”.

For “MAHHHHHHMVLYIIGLGLGDEKDITIKGKELIEKSDVVYLETYTSILFVSKDVLEETYKKSIEEVDRDFAEENCDKILDEAKNKKVSFLVVGDPLCATTHHDIILRAKKKNIDVEIIHNTSIISAIGECGMQLYNFGQIVSIPYFEDNYKPTSYYDKIYINLKNNFHTLCLLDIKVKERTVENIMRNKKIYEPPRFMTINDSIEQLLYCEHIHKKNIITKNTLGIAIIQIGTDNQQIISGDLLTLKDISYNKPLHSLIICAPTLHDIEKEYFDLYHYNNMKK”, which “soluble on expression in E. coli” value is on record?
The value was “not soluble”.

For “MAHHHHHHMVSDPSFCKKAPSSDLLGSNGRKVPPSFIAPPSSDVFLTSRRKTSFRNKSALTCLGKDVMSVSYGCGMRFRKAVRSGLSVFREAITLTDGGRHEGSHSRTSDSRPPQLSKRSMREIRRRIISPSYLEITSRTSTASSSTLRYIRLDFFKKTRRR”, which “soluble on expression in E. coli” value is on record?
The value was “not soluble”.

With “MAHHHHHHMVVPVMNMTREPAVDSPENSRKISLAGYPEVAGLFCVTVFKSTLDLEVRDCCGLLTLDGVGKCVELKKFSISNCGMLTNISDLKDCVNLEMLTLSGCKTLRNLTPLKGHRTLSCITISHCERMMELDLEGATNLMQLNISDCEELKDVHVSRCTRLEVIDIHDCVKLEKLHGLTYLRELKTLILAGNRELSAVEGINELINRVEKLSLKNCEKLEDLKFLDFCNFLKEVVVAGSNVTEEKKQELRGKGVRIVNEVKVADG” as the sequence, how does the “soluble on expression in E. coli” value read?
The value was “not soluble”.

For “MAHHHHHHMVVVKGTEYYDGRTKNYVDYPITDVLQMVGRAGRPQFDTEGVAQVLCHEPKKGFYRKFLYDPFPVESTLHKQLHVHINAEIVAGTITTRQDAVDYLTWTYLFRRLVKNPSYYGVEDRSPKAVTIFISTLVANVLDELEACGCIASPGDDEEDDVSRKVTGMSAAGGTDDEKDPDALTCTVLGRLCSYYYLSHKTVRYFDAHIGADSSHVDVLKALCEAEEFNELPVRHNEDKLNLVLSQLLPFPINPNNAESPHVKAFLLFQAHFERASLPISDYYTDLKSALDNAVRVVQAMVDITSNNGHLYAALRCMSLLQCMVQGIWWHSSTLLQIPHVTAGMLPVIASRCGNLEHAAQVANSSITALQTLKAVLREDCGLSETQLREAMAAIQGFPLIDVRLCLSRTPDRTSNSGDAEHSDDGSKTAADVTYTLTVHLTRLSVHNKHVVAPHFTKPKDEQYWLVVGNEKTGELIALKRVNRLVNCVELTLSFEWDDEWAEFAEGGAVALSLYVVCDSYVGLDQQYNFSVPVPVDM”, which “soluble on expression in E. coli” value is on record?
Its value is “soluble”.
